Patent US20140141023A1 (PIERRE FABRE MEDICAMENT, published 2014)

T1: human protein Axl expressed on cells (SN12C human renal tumor cells; CHO-Axl cells) (human, UniProt P30530 26-894)
T1 construct: also called membrane Axl receptor; cell-surface Axl
T1 sequence: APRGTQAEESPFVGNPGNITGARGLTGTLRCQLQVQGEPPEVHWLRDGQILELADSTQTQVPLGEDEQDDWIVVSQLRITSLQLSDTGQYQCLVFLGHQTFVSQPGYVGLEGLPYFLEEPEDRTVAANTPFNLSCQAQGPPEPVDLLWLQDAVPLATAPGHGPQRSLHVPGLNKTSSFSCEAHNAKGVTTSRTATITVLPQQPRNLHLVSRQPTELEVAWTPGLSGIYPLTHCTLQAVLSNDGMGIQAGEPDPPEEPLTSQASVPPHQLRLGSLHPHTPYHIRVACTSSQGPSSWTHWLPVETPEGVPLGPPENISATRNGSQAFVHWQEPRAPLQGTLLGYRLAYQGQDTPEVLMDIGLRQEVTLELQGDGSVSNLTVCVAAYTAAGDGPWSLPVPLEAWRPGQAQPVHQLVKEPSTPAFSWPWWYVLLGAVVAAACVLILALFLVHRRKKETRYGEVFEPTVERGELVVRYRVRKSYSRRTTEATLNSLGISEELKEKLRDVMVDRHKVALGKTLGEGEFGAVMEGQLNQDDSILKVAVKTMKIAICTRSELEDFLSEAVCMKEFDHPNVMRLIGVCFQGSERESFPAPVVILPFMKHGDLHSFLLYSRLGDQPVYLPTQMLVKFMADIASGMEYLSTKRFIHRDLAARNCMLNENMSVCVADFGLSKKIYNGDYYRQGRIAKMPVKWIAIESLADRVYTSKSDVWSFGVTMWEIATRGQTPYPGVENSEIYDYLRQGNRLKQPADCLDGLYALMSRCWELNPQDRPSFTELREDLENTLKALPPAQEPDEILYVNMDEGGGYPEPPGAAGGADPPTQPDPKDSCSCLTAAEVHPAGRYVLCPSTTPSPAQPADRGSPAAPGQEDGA


How the values were obtained:
[1] = target: human protein Axl expressed on cells (SN12C human renal tumor cells; CHO-Axl cells) (human) (UniProt P30530); assay: flow cytometry, labelling of untreated (No Ab) SN12C cells
[2] = target: human protein Axl expressed on cells (SN12C human renal tumor cells; CHO-Axl cells) (human) (UniProt P30530); assay: flow cytometry, labelling of SN12C cells treated 24 h with 9G4 at 10 µg/ml
[3] = target: human protein Axl expressed on cells (SN12C human renal tumor cells; CHO-Axl cells) (human) (UniProt P30530); assay: QIFIKIT quantitative flow cytometry on A431 cells (epidermoid carcinoma)
[4] = target: human protein Axl expressed on cells (SN12C human renal tumor cells; CHO-Axl cells) (human) (UniProt P30530); assay: QIFIKIT quantitative flow cytometry on SN12C cells (renal)
[5] = target: human protein Axl expressed on cells (SN12C human renal tumor cells; CHO-Axl cells) (human) (UniProt P30530); assay: QIFIKIT quantitative flow cytometry on Panc1 cells (pancreas)
[6] = target: human protein Axl expressed on cells (SN12C human renal tumor cells; CHO-Axl cells) (human) (UniProt P30530); assay: QIFIKIT quantitative flow cytometry on A172 cells (glioblastoma)
[7] = target: human protein Axl expressed on cells (SN12C human renal tumor cells; CHO-Axl cells) (human) (UniProt P30530); assay: QIFIKIT quantitative flow cytometry on MCF7 cells (breast)
[8] = target: human protein Axl expressed on cells (SN12C human renal tumor cells; CHO-Axl cells) (human) (UniProt P30530); assay: QIFIKIT quantitative flow cytometry on Calu-1 cells (lung)
[9] = target: human protein Axl expressed on cells (SN12C human renal tumor cells; CHO-Axl cells) (human) (UniProt P30530); assay: QIFIKIT quantitative flow cytometry on DU-145 cells (prostate)
[10] = target: human protein Axl expressed on cells (SN12C human renal tumor cells; CHO-Axl cells) (human) (UniProt P30530); assay: QIFIKIT quantitative flow cytometry on PC3 cells (prostate)
[11] = target: human protein Axl expressed on cells (SN12C human renal tumor cells; CHO-Axl cells) (human) (UniProt P30530); assay: QIFIKIT quantitative flow cytometry on NCI-H226 cells (NSCLC)
[12] = target: human protein Axl expressed on cells (SN12C human renal tumor cells; CHO-Axl cells) (human) (UniProt P30530); assay: Qifikit (Dako) quantitative flow cytometry on SN12C human renal cancer cells
[13] = target: human protein Axl expressed on cells (SN12C human renal tumor cells; CHO-Axl cells) (human) (UniProt P30530); assay: QIFIKIT quantitative flow cytometry on NCI-H125 cells (NSCLC)
[14] = target: human protein Axl expressed on cells (SN12C human renal tumor cells; CHO-Axl cells) (human) (UniProt P30530); assay: QIFIKIT quantitative flow cytometry on MDA-MB-435S cells (breast)
[15] = target: human protein Axl expressed on cells (SN12C human renal tumor cells; CHO-Axl cells) (human) (UniProt P30530); assay: QIFIKIT quantitative flow cytometry on MDA-MB-231 cells (breast)
[16] = target: monkey Axl receptor expressed on the surface of COS7 cells (African green monkey); assay: flow cytometry on COS7 cells, goat anti-mouse Alexa 488
[17] = target: monkey Axl receptor expressed on the surface of COS7 cells (African green monkey); assay: flow cytometry titration on COS7 cells
[18] = target: T1, human protein Axl expressed on cells …; assay: flow cytometry on SN12C cells, goat anti-mouse Alexa 488

Row | Molecule | MFI at T24 h [1] [MFI] | MFI at T24 h [2] [MFI] | ABC (Qifikit) [3] [ABC] | ABC (Qifikit) [4] [ABC] | ABC (Qifikit) [5] [ABC] | ABC (Qifikit) [6] [ABC] | ABC (Qifikit) [7] [ABC] | ABC (Qifikit) [8] [ABC] | ABC (Qifikit) [9] [ABC] | ABC (Qifikit) [10] [ABC] | ABC (Qifikit) [11] [ABC] | Antigen binding capacity (Qifikit) [12] [ABC] | ABC (Qifikit) [13] [ABC] | ABC (Qifikit) [14] [ABC] | ABC (Qifikit) [15] [ABC] | EC50 (read off the curve) [16] [nM] | concentration above which the plateau is reached [17] [pM] | EC50 (read off the curve) [18] [pM]
1 | 9G4 (mIgG1 isotype control antibody) | 11 | 13 | – | – | – | – | – | – | – | – | – | – | – | – | – | – | – | –
2 | MAB154 anti-Axl commercial antibody (R and D Systems) | 950 | – | 3950 | > 100000 | 36800 | 52400 | 71 | > 100000 | 55300 | 8420 | 32100 | > 100000 | 5540 | 17800 | 61200 | – | – | –
3 | 1613F12 (antibody, V domains shown, also called 1613F12 antibody; 1613F12 Mab) VH: EVHLQQSGAELVKPGASVKLSCTASGFNIRDTYIHWVKQRPEQGLEWIGRLDPANGHTKYGPNFQGRATMTSDTSSNTAYLQLSSLTSEDTAVYYCARGAYYYGSSGLFYFDYWGQGTTLSVSS VL: DVQITQSPSYLATSPGETITINCRASKSISKYLAWYQEKPGKTNKLLIYSGSTLQSGVPSRFSGSGSGTDFTLTISSLEPEDFAMYFCQQHHEYPLTFGAGTELELK | – | – | – | – | – | – | – | – | – | – | – | – | – | – | – | 1 | > 420 | ~900
